Experimental data published in PMC12088458.

How the values were obtained:
Assay in all cases: BioID proximity labelling, biotin pull-down, mass spectrometry
Details in all cases: HEK293T, n = 3, over EV-BirA control, read off a plot
DDX3X = DDX3X (UniProt O00571)
SMARCA4 = SMARCA4 (UniProt P51532)
SMARCA5 = SMARCA5 (UniProt O60264)
TRRAP = TRRAP (UniProt Q9Y4A5)
β-catenin = β-catenin (UniProt P35222)
UniProt P35222, sequence (P35222 whole entry): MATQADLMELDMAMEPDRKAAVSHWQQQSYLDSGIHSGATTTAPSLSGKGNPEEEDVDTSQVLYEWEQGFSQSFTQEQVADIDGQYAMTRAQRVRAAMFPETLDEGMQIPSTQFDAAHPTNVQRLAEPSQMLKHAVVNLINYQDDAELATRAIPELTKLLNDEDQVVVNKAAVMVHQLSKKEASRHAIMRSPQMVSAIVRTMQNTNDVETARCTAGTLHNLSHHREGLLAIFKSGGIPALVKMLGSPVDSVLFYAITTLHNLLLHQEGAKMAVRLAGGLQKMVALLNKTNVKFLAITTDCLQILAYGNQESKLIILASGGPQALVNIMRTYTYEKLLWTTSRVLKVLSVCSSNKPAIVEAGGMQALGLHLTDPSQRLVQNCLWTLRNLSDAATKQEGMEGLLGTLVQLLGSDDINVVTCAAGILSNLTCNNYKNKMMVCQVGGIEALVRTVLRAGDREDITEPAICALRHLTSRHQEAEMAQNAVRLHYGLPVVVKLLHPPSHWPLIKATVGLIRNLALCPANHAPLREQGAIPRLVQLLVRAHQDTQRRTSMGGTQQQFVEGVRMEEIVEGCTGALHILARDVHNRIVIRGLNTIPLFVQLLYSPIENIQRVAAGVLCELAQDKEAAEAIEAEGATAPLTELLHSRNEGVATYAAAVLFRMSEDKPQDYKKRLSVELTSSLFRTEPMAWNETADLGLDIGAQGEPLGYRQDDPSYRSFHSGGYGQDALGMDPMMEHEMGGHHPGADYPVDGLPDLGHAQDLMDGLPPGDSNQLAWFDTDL

UniProt O00571, sequence (O00571 whole entry): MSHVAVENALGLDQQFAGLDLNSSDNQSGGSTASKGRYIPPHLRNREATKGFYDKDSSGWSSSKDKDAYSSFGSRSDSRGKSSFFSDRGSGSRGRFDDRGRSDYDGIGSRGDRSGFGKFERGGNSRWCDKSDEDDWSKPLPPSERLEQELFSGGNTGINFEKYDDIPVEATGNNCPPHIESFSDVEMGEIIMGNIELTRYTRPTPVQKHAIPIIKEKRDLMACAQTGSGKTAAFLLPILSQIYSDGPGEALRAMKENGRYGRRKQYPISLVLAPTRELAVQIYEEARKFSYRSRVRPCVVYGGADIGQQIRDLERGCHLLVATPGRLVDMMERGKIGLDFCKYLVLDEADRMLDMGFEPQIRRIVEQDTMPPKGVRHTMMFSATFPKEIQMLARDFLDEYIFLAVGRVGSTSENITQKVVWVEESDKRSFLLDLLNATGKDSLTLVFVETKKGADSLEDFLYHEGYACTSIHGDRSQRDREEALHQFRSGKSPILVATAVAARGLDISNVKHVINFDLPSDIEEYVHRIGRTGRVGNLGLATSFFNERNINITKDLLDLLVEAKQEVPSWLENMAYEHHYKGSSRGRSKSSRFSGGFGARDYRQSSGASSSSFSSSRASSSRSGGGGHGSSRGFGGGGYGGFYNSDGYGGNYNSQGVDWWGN
UniProt P51532, sequence (P51532 whole entry): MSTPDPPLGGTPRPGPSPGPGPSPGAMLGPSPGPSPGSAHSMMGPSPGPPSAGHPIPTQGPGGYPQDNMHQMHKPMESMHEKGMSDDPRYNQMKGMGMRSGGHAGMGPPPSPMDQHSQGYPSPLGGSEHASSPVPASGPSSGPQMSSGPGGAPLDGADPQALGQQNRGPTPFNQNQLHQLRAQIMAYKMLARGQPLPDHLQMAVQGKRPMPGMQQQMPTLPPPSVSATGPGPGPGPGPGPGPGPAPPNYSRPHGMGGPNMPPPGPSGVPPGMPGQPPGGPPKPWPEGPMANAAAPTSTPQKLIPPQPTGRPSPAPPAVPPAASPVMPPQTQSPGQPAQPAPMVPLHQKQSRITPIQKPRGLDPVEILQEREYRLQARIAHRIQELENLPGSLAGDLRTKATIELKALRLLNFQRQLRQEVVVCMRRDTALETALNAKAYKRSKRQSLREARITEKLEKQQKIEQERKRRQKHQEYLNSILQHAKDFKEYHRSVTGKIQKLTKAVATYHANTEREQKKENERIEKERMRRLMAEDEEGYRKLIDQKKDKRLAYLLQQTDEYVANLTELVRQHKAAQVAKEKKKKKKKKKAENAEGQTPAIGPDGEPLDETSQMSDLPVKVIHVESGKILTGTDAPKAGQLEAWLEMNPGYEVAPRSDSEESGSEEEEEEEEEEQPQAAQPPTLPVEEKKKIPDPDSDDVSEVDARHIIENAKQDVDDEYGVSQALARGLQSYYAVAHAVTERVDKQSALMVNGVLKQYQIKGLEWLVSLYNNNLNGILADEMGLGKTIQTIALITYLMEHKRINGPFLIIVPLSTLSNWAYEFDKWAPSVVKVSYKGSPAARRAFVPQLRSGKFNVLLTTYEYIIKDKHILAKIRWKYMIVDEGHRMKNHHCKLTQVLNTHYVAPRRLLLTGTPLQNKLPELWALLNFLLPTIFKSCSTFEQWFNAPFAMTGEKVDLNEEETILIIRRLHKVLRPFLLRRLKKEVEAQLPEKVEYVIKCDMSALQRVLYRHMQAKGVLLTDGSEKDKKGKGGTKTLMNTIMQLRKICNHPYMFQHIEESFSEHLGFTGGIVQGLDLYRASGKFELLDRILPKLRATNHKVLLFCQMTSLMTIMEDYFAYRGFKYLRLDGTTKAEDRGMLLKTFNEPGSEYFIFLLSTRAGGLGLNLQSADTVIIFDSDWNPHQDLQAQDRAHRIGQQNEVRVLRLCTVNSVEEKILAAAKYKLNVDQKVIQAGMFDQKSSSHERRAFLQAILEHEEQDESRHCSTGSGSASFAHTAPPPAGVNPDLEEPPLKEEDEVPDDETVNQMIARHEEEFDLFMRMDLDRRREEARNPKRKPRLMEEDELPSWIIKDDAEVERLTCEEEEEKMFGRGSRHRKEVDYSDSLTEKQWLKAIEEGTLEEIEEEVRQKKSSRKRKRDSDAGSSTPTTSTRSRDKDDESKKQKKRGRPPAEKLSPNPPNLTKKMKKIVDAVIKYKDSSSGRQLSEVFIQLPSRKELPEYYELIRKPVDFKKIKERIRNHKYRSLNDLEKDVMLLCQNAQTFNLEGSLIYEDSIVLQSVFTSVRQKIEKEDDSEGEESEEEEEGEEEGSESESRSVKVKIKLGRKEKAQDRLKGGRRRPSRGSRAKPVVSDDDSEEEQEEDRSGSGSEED
UniProt O60264, sequence (O60264 whole entry): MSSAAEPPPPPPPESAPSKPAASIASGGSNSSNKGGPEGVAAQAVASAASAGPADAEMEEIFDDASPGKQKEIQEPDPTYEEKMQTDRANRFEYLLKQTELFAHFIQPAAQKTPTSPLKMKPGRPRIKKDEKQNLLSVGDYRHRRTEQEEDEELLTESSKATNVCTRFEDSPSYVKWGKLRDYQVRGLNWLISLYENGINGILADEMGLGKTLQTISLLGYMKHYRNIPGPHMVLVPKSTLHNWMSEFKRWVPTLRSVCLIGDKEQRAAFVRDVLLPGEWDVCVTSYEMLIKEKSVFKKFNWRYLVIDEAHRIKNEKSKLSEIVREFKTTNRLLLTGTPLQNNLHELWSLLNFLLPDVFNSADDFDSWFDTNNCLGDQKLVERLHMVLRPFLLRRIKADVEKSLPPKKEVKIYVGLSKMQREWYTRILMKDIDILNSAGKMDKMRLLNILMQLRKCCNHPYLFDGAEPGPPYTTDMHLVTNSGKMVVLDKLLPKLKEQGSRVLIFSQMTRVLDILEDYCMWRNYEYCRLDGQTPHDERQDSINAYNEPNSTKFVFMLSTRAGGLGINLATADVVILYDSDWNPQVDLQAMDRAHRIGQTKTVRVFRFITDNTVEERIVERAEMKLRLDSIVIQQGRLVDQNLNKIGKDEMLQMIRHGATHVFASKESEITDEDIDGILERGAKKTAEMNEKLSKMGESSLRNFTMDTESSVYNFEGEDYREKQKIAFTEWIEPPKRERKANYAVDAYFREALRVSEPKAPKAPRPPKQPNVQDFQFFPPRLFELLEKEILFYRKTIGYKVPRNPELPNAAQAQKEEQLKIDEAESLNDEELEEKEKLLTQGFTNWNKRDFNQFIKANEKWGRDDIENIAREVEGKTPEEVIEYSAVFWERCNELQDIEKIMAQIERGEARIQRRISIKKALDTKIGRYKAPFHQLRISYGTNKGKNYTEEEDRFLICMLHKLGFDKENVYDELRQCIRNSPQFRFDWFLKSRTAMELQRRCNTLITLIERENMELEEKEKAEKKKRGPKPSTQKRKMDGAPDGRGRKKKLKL

Row | Substance | other: SaintScore (DDX3X; WNT-OFF (10 nM LGK974)) | other: SaintScore (DDX3X; WNT-ON (10 µM CHIR99021)) | other: SaintScore (SMARCA4; WNT-OFF (10 nM LGK974)) | other: SaintScore (SMARCA4; WNT-ON (10 µM CHIR99021)) | other: SaintScore (SMARCA5; WNT-OFF (10 nM LGK974)) | other: SaintScore (SMARCA5; WNT-ON (10 µM CHIR99021)) | other: SaintScore (TRRAP; WNT-OFF (10 nM LGK974)) | other: SaintScore (TRRAP; WNT-ON (10 µM CHIR99021)) | other: SaintScore (β-catenin; WNT-ON (10 µM CHIR99021)) | other: SaintScore (β-catenin; WNT-OFF (10 nM LGK974))
1 | TBX3-WT-BirA (from UniProt O15119) NPF del | 0.32 | 0.71 | 0 | 0.67 | 0 | 0.67 | 0 | 0.67 | 0.67 | 
2 | TBX3-WT-BirA (from UniProt O15119) RRM del | 1 | 0.65 | 1 | 0.93 | 0.67 | 0.67 | 1 | 0.67 | 0.67 | 0.33
